According to publication doi:10.1101/2025.09.29.679184:

Legend:
[1] = target: N-terminally Avi-tagged Lotus SYMRK kinase 4A (Lotus japonicus); assay: BLI
[2] = target: N-terminally Avi-tagged Lotus SYMRK kinase 4D (Lotus japonicus); assay: BLI

Lotus japonicus Early Phosphorylated Protein 1a (EPP1a) WT, purified (natural protein)
KD1 (2:1 heterogenous ligand fit) [1]: 2.2 µM
KD2 (2:1 heterogenous ligand fit) [1]: 6.4 µM
KD1 (2:1 heterogenous ligand fit) [2]: 452 nM
KD2 (2:1 heterogenous ligand fit) [2]: 1 µM
